Results reported in the nanobody polyreactivity screen of Harvey et al. (2022).

Assay: yeast display, Sf9 membrane polyspecificity reagent, FACS + sequencing; frameworks hold sequencing errors
In short: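 Galactose-induced (36–48 hours) yeast carrying a synthetic nanobody display library were exposed to 10% biotinylated, detergent-solubilized Sf9 membrane reagent at 4 °C for 1 hour. FACS followed streptavidin microbead enrichment, using low and high (top ~1%) gates for expression (anti-HA) and reagent binding (streptavidin). Colony PCR, MiSeq 2 × 250 sequencing and CDR-length filtering followed. Labels for polyreactivity reflect the gate of origin.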

Sequence	polyreactivity (PSR sort gate)
QVQLVESGGGLVQAGGSLRLSCAPSGSIFWYYCKGWYRQAPGKERELVAAISSGGSTNYADSVKGRFAISRDNAKNTVYLQMNSLKAEDTAVYYCAVRFTFPRYDYWGQGTQVTVSS	high polyreactivity
QVQLVESGGGLVQAGGSLRLSCAPSGSILWQYAMGWYRQAPGKERELVAAITYSGGSTHYADSVKGRFTISRDNAKNTVYLQMNSLKPEETAVYYCAAGYWYRYAALRYDHWGQGTQVTVSS	low polyreactivity
QVQLVESGGGLVQAGGSLRLSCAPSGSTFDPFAMGWYRQAPGKERELVADITSSDGSTYYADSVKGRFTISRDNAKNTVYFQMNSLKPEVTAVYYCYSDYRYFWTYWGWSIYDYWGQGTQVTVSS	high polyreactivity
QVQLVESGGGLVQAGGSLRLSCAPSGSTFFTYAMGWYRQAPGKERELVASISIGGSTNYADSVKGRFTISRDNAKNTVYLQMNSLIQEDSAVYYCAIRYFTFGVDYEYWGQGTQVTVSS	low polyreactivity
QVQLVESGGGLVQAGGSLRLSCAPSGSTFRGNAMGWYRQAPGKERELVAAITRRGGSTYYADSVKGRFTISRDNAKNTVYLQMNSLKPEDTAVYYCAKVGRETEYAYWGQGTQVTVSS	high polyreactivity
QVQLVESGGGLVQAGGSLRLSCAPSGSTFRRNAMGWSRQAPGKERELVAANSGSGGRTYYADSVKGRITISRDNAKNTVYLQMNSMKPEDTAVYYCAARSTVYEFFYYRGWWEYYYWGQGTQVTVSS	low polyreactivity
QVQLVESGGGLVQAGGSLRLSCAPSGSTFYVNTMGWYRQAPGKERELVAAITATGASTYYADSVKGRFTISRDNAKNTVYVQMNSLKPEDTAVYYCNVRLRIRSGYWGQGTQVTVSS	high polyreactivity
QVQLVESGGGLVQAGGSLRLSCAPSGYIFQAYVMGWYRPAPGKERELVAAITSGGGTYYADSVKGRFTISRDNAKNTVYLQMISLKPEDTAVYYCAARYTQRPRRNYWGQGSQVTVSS	high polyreactivity
QVQLVESGGGLVQAGGSLRLSCAPSGYNFSKYAMGWYRQAPGKERELVAAITSGGGSTYYADSVKGRFTISRDNAKNTVYLQMNSLKPEDTAVYYCNAACRRIVGQTYDYWGQGTQVTVSS	high polyreactivity
QVQLVESGGGLVQAGGSLRLSCAPSGYTFWLYAMGWYRQAPGKERELVAAITWNGGSTYYADSVKGRFTISRDIAKNTVYLQMISLNPEYTAVYYCAAEAIIYLQWFDYWGQGTQVTVSS	low polyreactivity
QVQLVESGGGLVQAGGSLRLSCAPSRSTLNYYAMGWYRQAPGKERELVAAITWSGGSTSYADSVKGRFTISRDNAKNTVYLQMNSLKPEDTAVYYCATDFPTVQLYDTDWLSSDMGYWGQGTQVTVSS	low polyreactivity
QVQLVESGGGLVQAGGSLRLSCAPSVRTFQYYAMGWYRPAPGKERELVAAINQGGGRTYYADSVKGRFTISRDTAKNTVYLQMNSLKPEDTAVYYCAADGLSKFDYWGQGTQVTVSS	low polyreactivity
QVQLVESGGGLVQAGGSLRLSCAPTGFTIGWYAMGWYRQAPGKERELVATISWSGSSTYYADSVKGRFTISRDNAKNTVYLQMNSLKPEDTAVYYCNAVYGRFVVLRYDYWAQGTQVTVSS	high polyreactivity
QVQLVESGGGLVQAGGSLRLSCASSGFIFAYNAMGWYRQAPGKERELVAAISRSGGSTRYADSVKGRFTISRDNAKNTVYLQMNSLIPEDTAVYYCAADWSDYWDWSWYDYWGQGTQVTVSS	high polyreactivity
QVQLVESGGGLVQAGGSLRLSCASSGFIFKRYAMGWYRQAPGKERELVAAITSGGSTHYADSVKGRFTISRDNAKNTVYLQMNSLKPEDTAVYYCATRRYKWGVRYDYWGQGTQVTVSS	high polyreactivity
QVQLVESGGGLVQAGGSLRLSCASSGFTFGVYAMGWYRTAPGKERELVAGITRGGSTNYADSVKGRFTISRDNAKNTVYLQMNSLKPEDTAVYYCAKVSYGYLRSWGRYTRGDYWGQGTQVTVSS	high polyreactivity
